Patent US20250223353A1 (BIOTHEUS, published 2025)

B1: ADI-56127 (antibody, V domains shown)
VH: QVQLVQSGAEVKKPGSSVKVSCKASGGTESVDAISWVRQAPGQGLEWMGDIIPFFDTDYAQKFQGRVTITADESTSTAYMELSSLRSEDTAVYYCAREGGTSWTHFFDLWGRGTLVTVSS
VL: not shown
notes: Full-length IgG secreted by yeast and purified on Protein A
B2: ADI-56204 Fab fragment (Fab, V domains shown)
VH: QVQLVQSGAEVKKPGASVKVSCKASGYTFTHYGIYWVRQAPGQGLEWMGHIYAYSGDTDYAQKLQGRVTMTTDTSTSTAYMELRSLRSDDTAVYYCARGSPTYEHFNWFDPWGQGTLVTVSS
VL: DIQMTQSPSSLSASVGDRVTITCQASDDISDYLNWYQQKPGKAPKLLIYDASSLHTGVPSRFSGSGSGTDFTFTISSLQPEDIATYYCQQYGNLPITFGGGTKVEIK
notes: Fab made by papain digestion of the yeast full-length IgG, purified with Kappa Select
B3: ADI-56249 (antibody, V domains shown)
VH: QVQLVQSGAEVKKPGSSVKVSCKASGGTFSTFAISWVRQAPGQGLEWMGDIIPIFGSNYAQKFQGRVTITADESTSTAYMELSSLRSEDTAVYYCARGPLEGKVSPFDIWGQGTMVTVSS
VL: DIVMTQSPLSLPVTPGEPASISCRSSQSLLHSTGYNYLDWYLQKPGQSPQLLIYVGSTRASGVPDRFSGSGSGTDFTLKISRVEAEDVGVYYCMQERQFPITFGGGTKVEIK
notes: as for B1
B4: ADI-56249 Fab fragment (Fab, V domains shown)
VH: B3 VH
VL: B3 VL
notes: as for B2
B5: ADI-56145 (antibody, V domains shown)
VH: QVQLVQSGAEVKKPGASVKVSCKASGYTFTSYGISWVRQAPGQGLEWVGWISSYDASTKYSQELQGRVTMTTDTSTSTAYMELRSLRSEDTAVYYCARGSPIYEHFNWFDPWGQGTLVTVSS
VL: EIVLTQSPATLSLSPGERATLSCRASQSVSSYLAWYQQKPGQAPRLLIYDSSNRATGIPARFSGSGSGTDFTLTISSLEPEDFAVYYCQQLSHHPLTFGGGTKVEIK
notes: Full-length IgG secreted by yeast and purified on Protein A; also called anti-PVRIG antibody ADI-56145 (full-length IgG obtained from Adimab)
B6: ADI-56145 Fab fragment (Fab, V domains shown)
VH: B5 VH
VL: B5 VL
notes: Fab made by papain digestion of the yeast full-length IgG, purified with Kappa Select; also called Fab of ADI-56145
B7: ADI-56249-G1LALA (antibody, human IgG1, kappa, L234A L235A, V domains shown)
VH: B3 VH
VL: DIVMTQSPLSLPVTPGEPASISCRSSQSLLHSTGYNYLDWYLQKPGQSPQLLIYVGSTRASGVPDRFSGSGSGTDFTLKISRVEAEDVGVYYCMQERQFPITFGGGTKVEIKR
B8: ADI-56145-G1LALA (antibody, human IgG1, kappa, L234A L235A, V domains shown)
VH: B5 VH
VL: EIVLTQSPATLSLSPGERATLSCRASQSVSSYLAWYQQKPGQAPRLLIYDSSNRATGIPARFSGSGSGTDFTLTISSLEPEDFAVYYCQQLSHHPLTFGGGTKVEIKR
B9: ADI-56204 (antibody, V domains shown)
VH: B2 VH
VL: B2 VL
notes: as for B1

How the values were obtained:
[1] = target: T1, cynomolgus monkey PVRIG-Fc protein (cynomolgus monkey, UniProt Q6DKI7 41-171 (human entry), limits assumed); assay: BLI (ForteBio), IgG on AHQ sensor, 100 nM PVRIG-Fc in solution, bivalent, 1:1 model
T1 construct: also called cynomolgus PVRIG-Fc protein; not shown: Fc part
T1 chain: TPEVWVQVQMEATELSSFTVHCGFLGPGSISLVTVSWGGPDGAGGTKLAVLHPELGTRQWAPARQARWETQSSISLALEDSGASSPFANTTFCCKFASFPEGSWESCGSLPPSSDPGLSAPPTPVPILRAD
Description: (§1) Biofilm layer optical interference technology (ForteBio) was used to determine the binding and dissociation rate constant (KD) values of the antibodies and their variants or Fab fragments obtained in Example 1 to human, cynomolgus monkey and mouse PVRIG. ForteBio affinity measurement was performed according to existing methods (Este, P et al., High throughput solution-based measurement of antibody-antigen affinity and epitope binning. Mabs, 2013.5 (2): p270-8).
(§2) The antibody-loaded sensor was continued to be loaded in a high concentration of irrelevant intact antibody for 10 min, saturating the Fc-binding site on the AHQ sensor. The saturated sensor was incubated in 100 nM PVRIG-Fc antigens to the plateau phase, and then the sensor was transferred to an analysis buffer and incubated for at least 2 minutes for measuring dissociation rate. The kinetic analysis was performed using a 1:1 binding model.

mouse PVRIG-Fc protein [2] = target: T2, mouse PVRIG-Fc protein (mouse); assay: as above
T2 construct: not shown: Fc part
T2 chain: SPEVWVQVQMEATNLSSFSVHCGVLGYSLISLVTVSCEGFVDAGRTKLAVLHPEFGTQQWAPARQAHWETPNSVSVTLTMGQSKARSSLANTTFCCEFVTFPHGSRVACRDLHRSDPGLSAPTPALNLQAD
Description: as §1, §2

human PVRIG-his protein = target: T3, human PVRIG-his protein (human, UniProt Q6DKI7 41-171); assay: BLI (ForteBio), IgG on AHQ sensor, 100 nM PVRIG-his in solution, monovalent, 1:1 model
T3 construct: also called PVRIG-his antigen; human PVRIG protein; not shown: his tag
T3 sequence: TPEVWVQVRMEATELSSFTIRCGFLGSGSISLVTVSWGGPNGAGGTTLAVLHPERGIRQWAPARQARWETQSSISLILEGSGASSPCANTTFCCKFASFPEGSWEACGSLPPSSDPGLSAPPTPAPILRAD
Description: as §1
The antibody-loaded sensor was incubated in 100 nM PVRIG-his antigen to the plateau phase, and then the sensor was transferred to an analysis buffer and incubated for at least 2 minutes for measuring dissociation rate. The kinetic analysis was performed using a 1:1 binding model.

human PVRIG-Fc protein = target: T4, human PVRIG-Fc protein (human, UniProt Q6DKI7 41-171); assay: BLI (ForteBio), PVRIG-Fc on AHQ sensor, 100 nM Fab in solution, monovalent, 1:1 model
T4 construct: also called PVRIG-Fc antigen (human); not shown: Fc part
T4 sequence: T3 sequence
Description: as §1
(§3) The antigen-loaded sensor was incubated in 100 nM Fab solution to the plateau phase, and then the sensor was transferred to an analysis buffer and incubated for at least 2 minutes for measuring dissociation rate. The kinetic analysis was performed using a 1:1 binding model.

[3] = target: T1, cynomolgus monkey PVRIG-Fc protein; assay: as above
Description: as §1, §3

mouse PVRIG-Fc protein [4] = target: T2, mouse PVRIG-Fc protein; assay: BLI (ForteBio), IgG on AHQ sensor, 100 nM PVRIG-Fc in solution, bivalent
[5] = target: T5, human PVRIG on the cell surface (human, UniProt Q6DKI7 41-326); assay: flow cytometry on CHO-huPVRIG cells
T5 construct: whole, on cells; also called CHO-huPVRIG cells; human PVRIG protein overexpressed on the surface of CHO cells
T5 sequence (looked up): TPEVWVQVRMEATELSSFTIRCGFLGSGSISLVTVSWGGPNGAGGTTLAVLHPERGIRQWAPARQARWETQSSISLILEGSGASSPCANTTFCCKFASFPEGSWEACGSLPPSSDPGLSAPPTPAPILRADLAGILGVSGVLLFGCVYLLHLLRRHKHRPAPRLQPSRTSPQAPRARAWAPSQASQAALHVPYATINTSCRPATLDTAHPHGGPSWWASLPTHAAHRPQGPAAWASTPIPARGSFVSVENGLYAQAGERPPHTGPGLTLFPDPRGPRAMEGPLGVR
Description: (§4) The overexpressing cells were expanded and adjusted to an appropriate cell density, and added to a 96-well flow cytometry plate. After centrifugation, the cells were added with a gradiently diluted sample to be tested, and incubated at 4° C. for 30 minutes. The cells were washed twice with PBS, and added with a fluorescent secondary antibody correspondingly diluted to an appropriate concentration, then incubated at 4° C. for 30 minutes, and washed twice with PBS. Cells were resuspended with PBS, and detected on a CytoFlex flow cytometer, and the corresponding MFI was calculated. Graphpad software was used for graphical analysis to obtain EC50 values.

[6] = target: T6, cynomolgus PVRIG overexpressed on CHO cells (cynomolgus, UniProt A0A2K5WVV8 1-322); assay: flow cytometry on CHO-cynoPVRIG cells
T6 construct: whole, on cells; also called CHO-cynoPVRIG cells
T6 sequence: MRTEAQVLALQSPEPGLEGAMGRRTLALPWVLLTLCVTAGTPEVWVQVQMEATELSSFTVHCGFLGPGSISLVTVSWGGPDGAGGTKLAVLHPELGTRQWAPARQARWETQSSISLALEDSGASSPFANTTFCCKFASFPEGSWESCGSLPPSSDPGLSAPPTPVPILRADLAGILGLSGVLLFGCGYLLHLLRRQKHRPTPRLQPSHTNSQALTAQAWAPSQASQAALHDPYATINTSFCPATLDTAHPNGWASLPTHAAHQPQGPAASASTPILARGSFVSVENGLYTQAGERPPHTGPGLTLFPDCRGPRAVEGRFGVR
Description: as §4

[7] = target: Biotin-labeled mouse PVRIG huFc protein (mouse); assay: competition ELISA: biotin mouse PVRIG huFc (2 ug/mL) binding to coated mouse CD112-his
Description: Specifically, mouse CD112-his protein diluted with 1× coating buffer to a final concentration of 1 μg/mL was added to the ELISA plate at 100 μL/well, covered with the film, and coated overnight at 4° C. The coating solution in the ELISA plate was discarded, and the ELISA plate was washed three times with 1×PBST and was blocked with 5% BSA/PBS at 200 μL/well for 2 hours at room temperature. During the blocking period, the samples to be tested were gradient diluted with 1% BSA/PBS to a final volume of 60 μL/well. […] The above co-incubated samples were discarded, the ELISA plate was washed three times with 1×PBST, and SA-HRP diluted with 1% BSA/PBS was added at 100 μL/well and incubated for 1 hour at room temperature.

[8] = target: T7, human PVRIG protein with mouse IgG2a Fc tag (human, UniProt Q6DKI7 41-171, limits assumed); assay: flow cytometry competition: human PVRIG-mouse IgG2a Fc (1 ug/mL) binding to CHO-huCD112 cells
T7 construct: not shown: mouse IgG2a Fc tag
T7 sequence (looked up): T3 sequence
Description: Specifically, CHO cells overexpressing human CD112 (CHO-huCD112 cells) were generated by transfection of the pCHO1.0 vector (purchased from Invitrogen) with cDNA encoding human CD112 cloned into the multiple cloning site (MCS), followed by pressure screening. The CHO-huCD112 cells were expanded and adjusted to a cell density of 2×10^6 cells/mL, added to a 96-well flow plate at 100 μL/well, and centrifuged for later use. The purified monoclonal antibody was gradiently diluted with PBS and the diluted sample was added to a 96-well flow plate at 60 μL/well. […] The above incubated samples were added at 100 μL/well to the 96-well flow plate containing CHO-huCD112 cells, incubated at 4° C. for 30 min and washed twice with PBS. APC-conjugated goat anti-mouse IgG antibody diluted 100-fold with PBS was added at 100 μL/well, incubated at 4° C. for 30 minutes and washed twice with PBS. Cells were resuspended with PBS at 100 μL/well, and detected on a CytoFlex flow cytometer, and the corresponding MFI was calculated.

Binder | Kd [1] [nM] | Kd (human PVRIG-his protein) [nM] | Kd (human PVRIG-Fc protein) [nM] | Kd [3] [nM] | also measured
B1 | 0.181 | 0.364 | – | – | Kd (mouse PVRIG-Fc protein [2]): 1.66 nM
B2 | – | – | 0.383 | 14.8 | –
B3 | 0.244 | 0.872 | – | – | Kd (mouse PVRIG-Fc protein [2]): 2.62 nM
B4 | – | – | 0.263 | 21.2 | –
B5 | 0.623 | 2.04 | – | – | binding result (mouse PVRIG-Fc protein [4]): no binding (tested: 100 nM)
B6 | – | – | 0.758 | 157 | –
B7 | – | – | – | – | EC50 [5]: 1.3 nM; EC50 [6]: 0.396 nM; IC50 [7]: 3.22 nM; IC50 [8]: 2.07 nM
B8 | – | – | – | – | EC50 [5]: 2.29 nM; EC50 [6]: 37.6 nM; IC50 [8]: 1.36 nM
B9 | 0.197 | 0.425 | – | – | binding result (mouse PVRIG-Fc protein [4]): no binding (tested: 100 nM)
